Test results published in PMC5827449, “Structural analysis of group II chitinase (ChtII) catalysis completes the puzzle of chitin hydrolysis in insects” (The Journal of Biological Chemistry, 2018).

System: T1, CC(=O)N[C@H]1[C@H](Oc2ccc3c(C)cc(=O)oc3c2)O[C@H](CO)[C@@H](O[C@@H]2O[C@H](CO)[C@@H](O)[C@H](O)[C@H]2NC(C)=O)[C@@H]1O
T1 construct: single GH18 catalytic domain C1 (core 1613-1855 and 1940-1988, insertion domain 1856-1939); His-tag purified from Pichia pastoris GS115
Test: fluorescence of released 4-methylumbelliferone
Type: biochemical, Ostrinia furnacalis
Conditions: pH 6.0, 20 mM sodium phosphate, 303 K, 20 min, 30.0 °C
Text: fluorescence of released 4-methylumbelliferone on OfChtII-C1

## OfChtII-C1 (Ostrinia furnacalis; A1877I/D1864N/D1876G/DEL1865-1874/G1863E/K1875R/N1878H)
  Km: 15.52 ± 0.98 µM
  kcat: 0.5498 ± 0.0108 s⁻¹
  kcat/Km: 35500 M⁻¹ s⁻¹
